Literature values in publication PMC3505834.
pKd: −log10 of the molar value.

Target: C3b C3b (Homo sapiens) (UniProt P01024)
Sequence (P01024 566-670): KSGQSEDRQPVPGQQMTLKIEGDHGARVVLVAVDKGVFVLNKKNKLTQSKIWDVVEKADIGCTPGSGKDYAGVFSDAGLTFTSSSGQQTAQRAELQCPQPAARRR

Sequence of CD46 (P15529 35-343): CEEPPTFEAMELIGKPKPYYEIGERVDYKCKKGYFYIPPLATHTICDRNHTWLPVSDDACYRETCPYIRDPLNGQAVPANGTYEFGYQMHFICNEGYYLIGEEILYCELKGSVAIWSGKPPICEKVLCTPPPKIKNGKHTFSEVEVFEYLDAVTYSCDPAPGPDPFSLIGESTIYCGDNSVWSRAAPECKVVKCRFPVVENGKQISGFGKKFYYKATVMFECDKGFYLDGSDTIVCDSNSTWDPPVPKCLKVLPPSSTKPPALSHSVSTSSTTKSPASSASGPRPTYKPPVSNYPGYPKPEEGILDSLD

- pKd: 6.00
Substance: CD46 (from UniProt P15529)
